Laboratory results: US20210388097A1 (SORRENTO THERAPEUTICS, published 2021)

Target: T1, human APRIL protein (R&D Systems, catalog #5860-AP-010/CF) (human, UniProt O75888 105-250, limits assumed)
T1 construct: Bought protein; also called human APRIL protein from R&D Systems; TNF13
T1 sequence (looked up): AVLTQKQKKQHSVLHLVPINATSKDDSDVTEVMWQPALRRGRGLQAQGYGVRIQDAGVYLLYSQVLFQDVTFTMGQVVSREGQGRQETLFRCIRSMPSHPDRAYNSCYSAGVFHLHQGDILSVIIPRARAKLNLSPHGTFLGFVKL
Assay: bio-layer interferometry, APRIL on AR2G sensor, BCMA-mouse Fc in solution
Experimental: Bio-layer interferometry was also used to measure binding between APRIL protein, and wild type or mutant BCMA proteins. Human APRIL protein (R&D Systems, catalog #5860-AP-010/CF) was loaded onto an Ar2G sensor (OctetRET96e) and reacted with 2.5 μg/mL of one of three types of human BCMA proteins including: wild type human BCMA-mouse Fc (SEQ ID NO:5), mutant-1 human BCMA-mouse Fc (17G-18G; SEQ ID NO:6), or mutant-2 human BCMA-mouse Fc (de132-35G; SEQ ID NO:7).

binding result: no binding (tested: 2.5 µg/mL)
B1: Mutant-1 human BCMA protein-mouse Fc (Fc fusion)
chain: MLQMAGQCSQNEYFDSGGHACIPCQLRCSSNTPPLTCQRYCNASVTNSVKGTNAGLGGLVDYKDDDDKTHTCPPCKCPAPNLLGGPSVFIFPPKIKDVLMISLSPIVTCVVVDVSEDDPDVQISWFVNNVEVHTAQTQTHREDYNSTLRVVSALPIQHQDWMSGKEFKCKVNNKDLPAPIERTISKPKGSVRAPQVYVLPPPEEEMTKKQVTLTCMVTDFMPEDIYVEWTNNGKTELNYKNTEPVLDSDGSYFMYSKLRVEKKNWVERNSYSCSVVHEGLHNHHTTKSFSRTPGK
notes: also called mutant-1 human BCMA-mouse Fc (17G-18G); mutant-1 BCMA protein
